A word on the Kd: it is the equilibrium constant for the complex coming apart.

Among the data in US20210355194A1 (TWIST BIOSCIENCE, published 2021) are Kd values, retold here.

The labels stand for the following.
B1: variant 5-64 (Fc fusion)
VHH: EVQLVESGGGLVQPGGSLRLSCAASGTSISNRVMGWFRQAPGKERELVARIYTGGDTLYADSVKGRFTISADNSKNTAYLQMNSLKPEDTAVYYCAARKIYRSLSYYGDYDWGQGTLVTVSS
B2: variant 6-33 (Fc fusion)
VHH: EVQLVESGGGLVQPGGSLRLSCAASGTFQRINHMGWFRQAPGKEREFVATINTGGQPNYADSVKGRFTISADNSKNTAYLQMNSLKPEDTAVYYCASLIAAQDYYFDYWGQGTLVTVSS
B3: variant 6-2 (Fc fusion)
VHH: EVQLVESGGGLVQPGGSLRLSCAASGFTMSSSWMGWFRQAPGKEREFVTVISGVGTSYADSVKGRFTISADNSKNTAYLQMNSLKPEDTAVYYCARGPDSSGYGFDYWGQGTLVTVSS
B4: variant 6-14 (Fc fusion)
VHH: EVQLVESGGGLVQPGGSLRLSCAASGITFRFKAMGWFRQAPGKEREFVAAVSWDGRNTYYADSVKGRFTISADNSKNTAYLQMNSLKPEDTAVYYCASDYYYMDVWGQGTLVTVSS
B5: variant 6-22 (Fc fusion)
VHH: EVQLVESGGGLVQPGGSLRLSCAASGRTFSEVVMGWFRQAPGKEREFVATIHSSGSTSYADSVKGRFTISADNSKNTAYLQMNSLKPEDTAVYYCVRVTSDYSMDSWGQGTLVTVSS
B6: variant 6-6 (Fc fusion)
VHH: EVQLVESGGGLVQPGGSLRLSCAASGTTLDYYAMGWFRQAPGKERELVAAISWSGGSTAYADSVKGRFTISADNSKNTAYLQMNSLKPEDTAVYYCAREDYYDSSGYSWGQGTLVTVSS
B7: variant 5-59 (Fc fusion)
VHH: EVQLVESGGGLVQPGGSLRLSCAASGLTFSLYRMCWFRQAPGKEREEVSCISNIDGSTYYADSVKGRFTISADNSKNTAYLQMNSLKPEDTAVYYCAADLLGDSDYEPSSGFGWGQGTLVTVSS
B8: variant 5-60 (Fc fusion)
VHH: EVQLVESGGGLVQPGGSLRLSCAASGRSFSSHRMGWFRQAPGKEREFVAAIMWSGSHRNYADSVKGRFTISADNSKNTAYLQMNSLKPEDTAVYYCAAIAYEEGVYRWDWGQGTLVTVSS
B9: variant 6-26 (Fc fusion)
VHH: EVQLVESGGGLVQPGGSLRLSCAASGDTFSTSWMGWFRQAPGKEREFVATINTGGGTNYADSVKGRFTISADNSKNTAYLQMNSLKPEDTAVYYCARVTTSFDYWGQGTLVTVSS
notes: VHH-Fc
B10: variant 6-77 (Fc fusion)
VHH: EVQLVESGGGLVQPGGSLRLSCAASGFTFDRSWMGWFRQAPGKEREFVAAVTEGGTTSYADSVKGRFTISADNSKNTAYLQMNSLKPEDTAVYYCARADYDFDYWGQGTLVTVSS
B11: variant 6-30 (Fc fusion)
VHH: EVQLVESGGGLVQPGGSLRLSCAASGFAFGDSWMGWFRQAPGKEREFVATINWSGVTAYADSVKGRFTISADNSKNTAYLQMNSLKPEDTAVYYCARADGYFDYWGQGTLVTVSS
B12: variant 6-32 (Fc fusion)
VHH: EVQLVESGGGLVQPGGSLRLSCAASGFTLDYYDMGWFRQAPGKEREFVALISWSGGSTYYADSVKGRFTISADNSKNTAYLQMNSLKPEDTAVYYCATDFYGWGTRERDAFDIWGQGTLVTVSS
B13: variant 6-31 (Fc fusion)
VHH: EVQLVESGGGLVQPGGSLRLSCAASGDTFSANRMGWFRQAPGKEREFVASITWSSANTYYADSVKGRFTISADNSKNTAYLQMNSLKPEDTAVYYCATFNWNDEGFDFWGQGTLVTVSS
B14: variant 6-5 (Fc fusion)
VHH: EVQLVESGGGLVQPGGSLRLSCAASGRTFTMGWFRQAPGKEREFVASTNSAGSTNYADSVNGRFTISADNSKNTAYLQMNSLKPEDTAVYYCTTVDQYFDYWGQGTLVTVSS
B15: variant 6-13 (Fc fusion)
VHH: EVQLVESGGGLVQPGGSLRLSCAASGLTFNDYAMGWFRQAPGKEREFVAHIPRSTYSPYYADSVKGRFTISADNSKNTAYLQMNSLKPEDTAVYYCAFLVGPQGVDHGAFDVWGQGTLVTVSS
B16: variant 6-10 (Fc fusion)
VHH: EVQLVESGGGLVQPGGSLRLSCAASGSIASIHAMGWFRQAPGKEREFVAAISRSGGFGSYADSVKGRFTISADNSKNTAYLQMNSLKPEDTAVYYCARDDKYYDSSGYPAYFQHWGQGTLVTVSS
B17: variant 6-23 (Fc fusion)
VHH: EVQLVESGGGLVQPGGSLRLSCAASGSIFSMNTMGWFRQAPGKEREFVALINRSGGGINYADSVKGRFTISADNSKNTAYLQMNSLKPEDTAVYYCVRLSSGYYDFDYWGQGTLVTVSS
B18: variant 5-65 (Fc fusion)
VHH: EVQLVESGGGLVQPGGSLRLSCAASGNIDRLYAMGWFRQAPGKEREGVAAIDSDGSTDYADSVKGRFTISADNSKNTAYLQMNSLKPEDTAVYYCAALIDYGLGFPIEWGQGTLVTVSS
B19: variant 6-24 (Fc fusion)
VHH: EVQLVESGGGLVQPGGSLRLSCAASGFTLDYYAMGWFRQAPGKEREFVAAINWSGDNTHYADSVKGRFTISADNSKNTAYLQMNSLKPEDTAVYYCARAPFYCTTTKCQDNYYYMDVWGQGTLVTVSS
B20: variant 6-1 (Fc fusion)
VHH: EVQLVESGGGLVQPGGSLRLSCAASGRTFGNYNMGWFRQAPGKEREFVATINSLGGTSYADSVKGRFTISADNSKNTAYLQMNSLKPEDTAVYYCARVDYYMDVWGQGTLVTVSS
B21: variant 5-67 (Fc fusion)
VHH: EVQLVESGGGLVQPGGSLRLSCAASGFNVNDYAMGWFRQAPGKEREFVAGITSSVGVTNYADSVKGRFTISADNSKNTAYLQMNSLKPEDTAVYYCAADIFFVNWGRGTLVTVSS
B22: variant 6-18 (Fc fusion)
VHH: EVQLVESGGGLVQPGGSLRLSCAASGLTFRNYAMGWFRQAPGKEREFIAGMMWSGGTTTYADSVKGRFTISADNSKNTAYLQMNSLKPEDTAVYYCAREGYYYDSSGYLNYFDYWGQGTLVTVSS
B23: variant 6-4 (Fc fusion)
VHH: EVQLVESGGGLVQPGGSLRLSCAASGFTRDYYTMGWFRQAPGKEREFVAAISRSGSLTSYADSVKGRFTISADNSKNTAYLQMNSLKPEDTAVYYCANLAYYDSSGYYDYWGQGTLVTVSS
B24: variant 6-12 (Fc fusion)
VHH: EVQLVESGGGLVQPGGSLRLSCAASGSTYTTYSMGWFRQAPGKEREFVAAISGSENVTSYADSVKGRFTISADNSKNTAYLQMNSLKPEDTAVYYCARVDDYMDVWGQGTLVTVSS
B25: variant 6-19 (Fc fusion)
VHH: EVQLVESGGGLVQPGGSLRLSCAASGSILSIAVMGWFRQAPGKEREFVAAISPSAVTTYYADSVKGRFTISADNSKNTAYLQMNSLKPEDTAVYYCAIGYYDSSGYFDYWGQGTLVTVSS
B26: variant 6-20 (Fc fusion)
VHH: EVQLVESGGGLVQPGGSLRLSCAASGSTLPYHAMGWFRQAPGKEREFVAAITWNGASTSYADSVKGRFTISADNSKNTAYLQMNSLKPEDTAVYYCARDRYYDTSASYFESETWGQGTLVTVSS
notes: VHH-Fc
B27: variant 5-63 (Fc fusion)
VHH: EVQLVESGGGLVQPGGSLRLSCAASGFSLDYYDMGWFRQAPGKEREFVAALGWSGGSTDYADSVKGRFTISADNSKNTAYLQMNSLKPEDTAVYYCAAGNGGRYGIVERWGQGTLVTVSS
B28: variant 6-16 (Fc fusion)
VHH: EVQLVESGGGLVQPGGSLRLSCAASGFTFDDAAMGWFRQAPGKEREFVAHISWSGGSTYYADSVKGRFTISADNSKNTAYLQMNSLKPEDTAVYYCATFGATVTATNDAFDIWGQGTLVTVSS
B29: variant 5-68 (Fc fusion)
VHH: EVQLVESGGGLVQPGGSLRLSCAASGFTFDHYTMGWFRQAPGKEREFVAAISGSENVTSYADSVKGRFTISADNSKNTAYLQMNSLKPEDTAVYYCAAEPYIPVRTMRHMTFLTWGQGTLVTVSS
B30: variant 6-15 (Fc fusion)
VHH: EVQLVESGGGLVQPGGSLRLSCAASGSTVLINAMGWFRQAPGKEREFVAAVRWSDDYTYYADSVKGRFTISADNSKNTAYLQMNSLKPEDTAVYYCAKEGRAGSLDYWGQGTLVTVSS
B31: variant 6-28 (Fc fusion)
VHH: EVQLVESGGGLVQPGGSLRLSCAASGDTYGSYWMGWFRQAPGKEREFVATITSDDRTNYADSVKGRFTISADNSKNTAYLQMNSLKPEDTAVYYCARVTSSLSGMDVWGQGTLVTVSS
B32: variant 6-17 (Fc fusion)
VHH: EVQLVESGGGLVQPGGSLRLSCAASGNTGSTGYMGWFRQAPGKEREMVAGVINDGSTVYADSVKGRFTISADNSKNTAYLQMNSLKPEDTAVYYCARLATSHQDGTGYLFDYWGQGTLVTVSS
B33: variant 6-25 (Fc fusion)
VHH: EVQLVESGGGLVQPGGSLRLSCAASGLTFGTYTMGWFRQAPGKEREFVAAISRFGSTYYADSVKGRFTISADNSKNTAYLQMNSLKPEDTAVYYCARGGDYDFWSVDYMDVWGQGTLVTVSS

This assay addresses CV S-protein construct 6 trimer TP31001F (SARS-CoV-2, UniProt P0DTC2 14-1208). Put plainly: SPR.
The molecule B1 registered a Kd of 221 nM. In other words, the sub-micromolar range. The same measure for B2: 0.2 nM; for B3: 1.2 nM. Molecule B4 yielded a Kd of 466 nM.

In the case of B5, the Kd is 1.8 nM. Against the preceding molecule, the Kd is about 260-fold lower. For B6 the value was 67.7 nM; for B7, 6.4 nM. For B8 the value was 0.8 nM. For B9 the value was 0.1 nM; for B10, 3.5 nM; for B11, 0.1 nM. In turn, B12 gave a Kd of 0.1 nM. B13 came in with a Kd of 20.7 nM. This Kd is about 210-fold higher than that of the molecule before. On to B14, for which the Kd is 0.8 nM. As for B15, the Kd is 0.6 nM.

Take B16: the Kd is 0.6 nM. The same measure for B17: 0.3 nM; for B18: 421 nM. Molecule B19 yielded a Kd of 0.2 nM. This Kd is about 2100-fold lower than that of the molecule before. For B20 the value was 1.2 nM.

With B21, the Kd stood at 1 nM.

In turn, B22 gave a Kd of 5.3 nM. B23: binding was put at a Kd of 0.5 nM. For B24 the value was 1.4 nM.

The molecule B25 registered a Kd of 1 nM. The Kd values of the last two molecules are within 1.5-fold of each other. As for B26, the affinity, expressed as Kd, was 0.3 nM. As to B27, the Kd was determined as 0.4 nM. Molecule B28 came in with a Kd of 2.2 nM. Take B29: the affinity, expressed as Kd, was 4.8 nM. For B30 the value was 9050 nM; for B31, 0.4 nM. B32 had a Kd of 0.6 nM. The same measure for B33: 5.8 nM.
